According to the RNAGym collection of RNA variant scans (doi:10.1073/pnas.2313332121):

B1: TPR t1 (parent)
chain: GACCAAUCUGCCCUCAGAGCUCGAGAACAUCUUCGGAUGCAGAGGAGGCAGGCUUCGGUGGCGCGAUAGCGCCAACGUCCUCAACCUCCAAUGCAUCCCACCACAUGAUGAUGCCUGAAGAGCCUUGGUUUUUUG

Variants of: B1
Assay: polymerase ribozyme fitness, log enrichment relative to wild type (log ratio); higher = more active; in vitro selection for triplet polymerase activity
In short: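 Fitness compares each genotype's enrichment to that of the wild type on a logarithmic scale, averaging replicates with inverse-variance weights. The logarithm is base 2. Enrichment came from Illumina sequencing of input and output libraries after one triplicate round of in vitro selection, which included frozen incubation at −7 °C, of PCR-built, transcribed mutant libraries of each subunit of a heterodimeric triplet polymerase ribozyme. Only genotypes with ≥10 input reads and ≥1 read per output were kept.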

Variant	polymerase ribozyme fitness (log ratio)
C49G G57U G63A A119G U133G	-0.878
U59A G61U	-0.465
A29U G45A G47U	-4.18
C49A C64U	-0.082
C82A C98A C114U	-5.87
A18U A29G C56A C80A	-6.14
C53A	0.0557
G77A G93A C124A	1.34
A27G U38C C40G C49G G63U A95G U132A	-3.68
A6U G63C C80A	-3.25
C12A C40A C86A C101U U106G	-5.32
C11G U14A A26C C80A C89U C124U	-6.54
C94A G127U U134G G135U	-2.31
A43C G63C	-3.41
C8G G45A C56U C72U C94A C101A	-2.54
G48C C94G C115U	-3.03
A46U G128U	-3.23
C4A C8A C13U G63U A84C	-2.38
G19U G45U A111C	-4.74
U7C A24U G61U	-7.38
C28G U54G C97U U130A U131C	-3.57

Variant	polymerase ribozyme fitness (log ratio)
C104A U116A	-5.02
G71A C123A	-0.22
A2G C11A C56G	-1.58
G23A C53U	-5.33
C28G G42C G52C G69U G107A A108G C124G	-7.26
G36C G69A G71A U81G C88A G93C C99A C123U	-6.5
A27C G47A U54G G57U	-1.6
C40A A46U C114A	-4.55
C11U A16U U112A	-0.434
U9C C22U A46C A103G G113C	-7.29
C34A G69U	-0.154
C8G C13G	0.865
C49G C85G	-2.67
C11G G42A U59A A91C C94A A95G A118G	-4.19
A6G	0.335
A5U U9A	-0.246
G48C G77U C89U C123U	-0.348
G10U A18U C40A C56G	-4.94
C53U U55A	-0.075
C3G C11G C97G C114A	-4.68
G47U U54C	-3.33

Variant	polymerase ribozyme fitness (log ratio)
G61C G107A U112A G117U	-6.86
G61U C101A U125C	-4.61
C20A C101U	-3.43
C88A C94A G117C	-5.02
C13U C22G A26C A37U A41G A50G C115U	-3.21
A75G U112A	1.59
C56A C80G C86U	-3.12
C3U G117A	-1.5
G77C U125A	-0.685
G44U U92A	-3.67
A46U G52U A66G C104U G110A	-5.89
A29U G63A	-2.41
C4A C13G C49G C88G	-4.57
A16U A37U G69U U106C G120U	-0.0765
C40U A41C	-2.44
A5C G17U G120A	-3.4
G52U C53A C73U	-1.08
G47C G71A	-3.14
G17U G69U A84C C124A	1.63
C56A G71A	-3.71
C70U C102A	-1.86

Variant	polymerase ribozyme fitness (log ratio)
A41U A100C U106A U132C	-2.89
C86U C124A	1.32
C79A A91C	-3.69
G39C C49G G77U C94A C98G C102U C123A U131A	-5.44
C20U U21C U116C	-2.85
G39C G48U G57C	-1.92
A18C C56G C72U C124U	-0.737
C3G U9C C13A C70G C89A U96C C101A G117C	-5.88
A27U C72U U87G	-3.11
C73U C114G	-1.76
A74C U109A	-5.88
C56U C72A G77A C97A	-3.63
U54C U109A G120C	-5.52
C88U	-0.0459
A2U A37G G61A U87G	-2.89
C79G C89U G117A	-4.75
G69U C70G U87G G117A	-1.97
A29U C49G C73U C76U C94A	-3.55
C12A C102U C115A	-4.21
G63C A90U	-2.23
A83U G113C G120U U132A	-4.48
